This note sets out measurements from PMC2387164, “A GATA4/WT1 cooperation regulates transcription of genes required for mammalian sex determination and differentiation”.

Data set [1] deals with WT1(+KTS) overexpressed in HeLa cells (mouse) (UniProt P22561).
In data set [2] the target is WT1(-KTS) (mouse, UniProt P22561-4 1-446). In words: EMSA; blocked by 10-fold excess self competitor; EMSA conditions as described previously (ref. 48); buffer, salt, pH and temperature not given. Conditions: protein: ivt; label: 32P (as probe); 5' overhang 4 nt (GGAT on strand 1, GATC on strand 2).
The target in data set [3] is WT1(+KTS) (mouse, UniProt P22561 1-449). Described as above. Particulars: protein: ivt; label: 32P (as probe); 5' overhang 4 nt (GGAT on strand 1, GATC on strand 2).
Data set [4] addresses T1, GATA4 (UniProt Q08369 1-441). As to the kind of experiment: competition; competitor of labeled GATA site 1; EMSA conditions as described previously (ref. 48); buffer, salt, pH and temperature not given. Conditions: protein: ivt; 5' overhang 4 nt (GATC) both ends.
Data set [5] deals with T1, GATA4. As to the kind of experiment: EMSA; EMSA conditions as described previously (ref. 48); buffer, salt, pH and temperature not given. Particulars: protein: ivt; label: 32P (as probe); 5' overhang 4 nt (GATC) both ends. On the technique in general: In EMSA bound probe runs differently from free probe, usually more slowly.

T1 sequence (Q08369 whole entry): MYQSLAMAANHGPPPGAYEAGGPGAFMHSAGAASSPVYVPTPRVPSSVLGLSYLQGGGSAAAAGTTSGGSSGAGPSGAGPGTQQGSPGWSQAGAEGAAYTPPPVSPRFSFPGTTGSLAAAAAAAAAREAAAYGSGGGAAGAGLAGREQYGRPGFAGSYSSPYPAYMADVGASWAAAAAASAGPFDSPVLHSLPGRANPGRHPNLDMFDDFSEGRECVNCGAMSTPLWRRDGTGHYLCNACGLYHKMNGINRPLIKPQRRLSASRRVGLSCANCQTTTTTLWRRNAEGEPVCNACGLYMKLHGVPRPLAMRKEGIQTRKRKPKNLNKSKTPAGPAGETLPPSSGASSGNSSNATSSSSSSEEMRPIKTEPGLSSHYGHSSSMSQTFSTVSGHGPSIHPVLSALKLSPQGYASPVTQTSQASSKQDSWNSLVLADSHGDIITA
WT1(+KTS) overexpressed in HeLa cells (mouse), sequence (P22561 whole entry): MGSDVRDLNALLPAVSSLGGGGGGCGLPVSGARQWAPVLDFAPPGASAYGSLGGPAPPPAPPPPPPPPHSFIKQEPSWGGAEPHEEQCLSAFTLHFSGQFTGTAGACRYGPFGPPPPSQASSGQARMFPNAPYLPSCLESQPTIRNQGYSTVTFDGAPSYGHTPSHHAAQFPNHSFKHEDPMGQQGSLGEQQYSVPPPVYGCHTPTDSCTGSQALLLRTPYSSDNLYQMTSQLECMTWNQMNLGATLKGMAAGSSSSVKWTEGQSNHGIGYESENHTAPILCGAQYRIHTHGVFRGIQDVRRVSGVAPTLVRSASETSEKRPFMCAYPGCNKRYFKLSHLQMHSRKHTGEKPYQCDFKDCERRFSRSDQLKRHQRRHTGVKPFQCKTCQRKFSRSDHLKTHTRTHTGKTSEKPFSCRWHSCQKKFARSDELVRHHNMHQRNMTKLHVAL
WT1(+KTS), sequence (P22561 whole entry): as above
WT1(-KTS), sequence (P22561 other isoform, or with tags, fused parts or gaps): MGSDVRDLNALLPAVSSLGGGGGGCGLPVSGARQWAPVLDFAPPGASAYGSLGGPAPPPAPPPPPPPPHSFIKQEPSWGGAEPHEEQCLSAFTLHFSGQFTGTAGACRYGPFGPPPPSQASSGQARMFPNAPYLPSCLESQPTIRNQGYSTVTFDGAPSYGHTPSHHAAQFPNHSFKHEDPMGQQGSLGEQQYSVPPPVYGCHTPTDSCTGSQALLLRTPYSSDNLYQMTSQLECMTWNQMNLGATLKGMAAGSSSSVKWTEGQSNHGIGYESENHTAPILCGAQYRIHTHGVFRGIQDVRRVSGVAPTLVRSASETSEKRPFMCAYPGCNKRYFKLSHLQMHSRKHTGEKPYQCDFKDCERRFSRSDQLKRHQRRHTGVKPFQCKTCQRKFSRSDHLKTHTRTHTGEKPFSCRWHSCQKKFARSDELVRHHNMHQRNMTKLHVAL

In data set [1], “GATA4 overexpressed in HeLa cells (from UniProt P46152 1-440) (natural protein)” displayed a luciferase reporter, -1090 bp mouse Sry promoter, co-transfected HeLa cells, fold activation over control of 30 fold and a luciferase reporter, -1400 bp pig SRY promoter, co-transfected HeLa cells, fold activation over control of 50 fold.

B1: human AMH distal WT1 element (dsDNA)
DNA 1: GGATCACTGGGGAGGGAGATAGGA
DNA 2: GATCTCCTATCTCCCTCCCCAGTG
For the molecule B1, the binding result in data set [2] and in data set [3] was “binds” each time.

B2: pig SRY GATA site 3 (dsDNA)
DNA 1: GATCCACATACTGATAATCATCAA
DNA 2: GATCTTGATGATTATCAGTATGTG
With B2, in data set [4], the binding result is “binds”.

B3: pig SRY GATA site 1 (dsDNA)
DNA 1: GATCCGCCTTATTATCATAATAAA
DNA 2: GATCTTTATTATGATAATAAGGCG
For B3, the binding result in data set [5] is recorded as “binds”.

B4: pig SRY GATA site 4 (dsDNA)
DNA 1: GATCCCCAAGGTTATCTGTTTTTA
DNA 2: GATCTAAAAACAGATAACCTTGGG
As to B4, the binding result in data set [4] is given as “binds”.

B5: pig SRY GATA site 2 (dsDNA)
DNA 1: GATCCATTGGGTTATCTTGAATCA
DNA 2: GATCTGATTCATGATAACCCAATG
With B5, the binding result in data set [4] was “binds”.
